In experiment [1] the target is T1, AnkG 38–903 (MBD + AI-c + AI-b) (rat, UniProt O70511-1 38-903).
T1 chain: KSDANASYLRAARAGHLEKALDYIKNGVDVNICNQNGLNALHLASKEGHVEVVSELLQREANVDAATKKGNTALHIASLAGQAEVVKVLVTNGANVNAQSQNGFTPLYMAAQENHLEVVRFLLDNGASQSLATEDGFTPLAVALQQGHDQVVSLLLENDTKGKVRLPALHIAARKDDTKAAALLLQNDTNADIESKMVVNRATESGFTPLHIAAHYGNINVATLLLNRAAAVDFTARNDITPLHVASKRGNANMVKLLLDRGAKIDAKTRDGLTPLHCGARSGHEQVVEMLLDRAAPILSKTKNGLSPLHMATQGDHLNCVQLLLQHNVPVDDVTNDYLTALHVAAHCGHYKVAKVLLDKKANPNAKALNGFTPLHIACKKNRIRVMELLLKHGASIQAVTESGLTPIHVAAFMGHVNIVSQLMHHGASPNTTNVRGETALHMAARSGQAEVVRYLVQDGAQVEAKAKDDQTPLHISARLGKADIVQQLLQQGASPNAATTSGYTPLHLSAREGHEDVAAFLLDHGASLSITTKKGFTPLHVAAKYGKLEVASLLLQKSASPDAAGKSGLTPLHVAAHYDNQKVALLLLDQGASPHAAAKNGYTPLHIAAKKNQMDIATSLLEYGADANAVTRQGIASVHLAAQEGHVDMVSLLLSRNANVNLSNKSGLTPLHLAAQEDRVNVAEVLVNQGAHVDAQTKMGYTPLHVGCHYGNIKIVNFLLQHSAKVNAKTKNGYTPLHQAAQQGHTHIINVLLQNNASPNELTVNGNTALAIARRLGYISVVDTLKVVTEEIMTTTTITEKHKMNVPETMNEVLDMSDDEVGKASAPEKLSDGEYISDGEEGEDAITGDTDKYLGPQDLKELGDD
The experiment in a line: ITC. On the technique in general: Isothermal titration calorimetry measures the heat released or taken up as one component is titrated into another.

Experiment [2] concerns the target T2, AnkG 38–855 (AnkG MBD-AI-c protein; MBD + partial AI-c) (rat, UniProt O70511-1 38-855).
T2 chain: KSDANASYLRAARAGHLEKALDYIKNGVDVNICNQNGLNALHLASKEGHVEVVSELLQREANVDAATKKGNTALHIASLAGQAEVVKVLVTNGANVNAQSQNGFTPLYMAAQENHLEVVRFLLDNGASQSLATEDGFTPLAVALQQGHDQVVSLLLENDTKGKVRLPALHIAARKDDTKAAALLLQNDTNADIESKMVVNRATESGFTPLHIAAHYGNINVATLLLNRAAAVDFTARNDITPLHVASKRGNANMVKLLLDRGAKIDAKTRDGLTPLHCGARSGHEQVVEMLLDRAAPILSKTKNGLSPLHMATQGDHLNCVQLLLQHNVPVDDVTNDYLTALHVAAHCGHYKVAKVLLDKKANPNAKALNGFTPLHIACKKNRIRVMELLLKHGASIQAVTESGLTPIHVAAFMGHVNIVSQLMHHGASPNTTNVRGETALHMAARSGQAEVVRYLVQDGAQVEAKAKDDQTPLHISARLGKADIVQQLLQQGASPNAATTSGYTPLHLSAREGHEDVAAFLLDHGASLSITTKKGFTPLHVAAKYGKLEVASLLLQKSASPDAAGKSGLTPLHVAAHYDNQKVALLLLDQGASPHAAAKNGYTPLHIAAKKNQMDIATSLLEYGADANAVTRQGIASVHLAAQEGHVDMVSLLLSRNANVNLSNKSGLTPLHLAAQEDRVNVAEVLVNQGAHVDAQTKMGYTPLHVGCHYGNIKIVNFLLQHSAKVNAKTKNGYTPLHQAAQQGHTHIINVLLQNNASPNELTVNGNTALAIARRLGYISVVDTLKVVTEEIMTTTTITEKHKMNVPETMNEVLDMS
The experiment in a line: ITC; reported in Wang et al 2014.

The results in this text go back to article PMC5779224 (2017).

A word on the Kd: it is a measure of binding affinity in units of concentration.

For the molecule SDDSLVDYGEGGEGQFNEDGSFIGQYTV (domain or fragment) [NF186 (aa 1187–1214)], the Kd stood at 4200 nM in experiment [1] and 210 nM in experiment [2].
